Assay results from PMC10918641 (Biomaterials, 2023).

Test system: C57BL/6J mice
Settings: mouse, in vivo

B1: OVA-PEG: OVA conjugated to PEG via urethane linkage (conjugate, UniProt P01012 2-386, looked up)
Ovalbumin: GSIGAASMEFCFDVFKELKVHHANENIFYCPIAIMSALAMVYLGAKDSTRTQINKVVRFDKLPGFGDSIEAQCGTSVNVHSSLRDILNQITKPNDVYSFSLASRLYAEERYPILPEYLQCVKELYRGGLEPINFQTAADQARELINSWVESQTNGIIRNVLQPSSVDSQTAMVLVNAIVFKGLWEKAFKDEDTQAMPFRVTEQESKPVQMMYQIGLFRVASMASEKMKILELPFASGTMSMLVLLPDEVSGLEQLESIINFEKLTEWTSSNVMEERKIKVYLPRMKMEEKYNLTSVLMAMGITDVFSSSANLSGISSAESLKISQAVHAAHAEINEAGREVVGSAEAGVDAASVSEEFRADHPFLFCIKHIATNAVLFFGRCVSP
modifications: PEG 10K conjugate
PEG-specific IgM titer relative to Ex-PEG: ~ 60 fold | anti-OVA IgG titer: lower titers of anti-OVA IgG than unmodified OVA | magnification of anti-OVA and anti-PEG responses by CFA/IFA emulsions: ~ 2 fold
